Sequences and labels used below:
B1: scFv; the commonest letter at each place (parent)
chain 1: EVKLDETGGGLVQPGRPMKLSCVASGFTFSDYWMNWVRQSPEKGLEWVAQIRNKPYNYETYYSDSVKGRFTISRDDSKSSVYLQMNNLRVEDMGIYYCTGSYYGMDYWGQGTSVTVS
chain 2: DVVMTQTPLSLPVSLGDQASISCRSSQSLVHSNGNTYLRWYLQKPGQSPKVLIYKVSNRFSGVPDRFSGSGSGTDFTLKISRVEAEDLGVYFCSQSTHVPWTFGGGTKLEIK

The variants in the data set “fluorescein” derive from B1. Description: Kd (Tite-Seq). The settings on record: with fluorescein; format: scFv 4-4-20, heavy + light.
Data set [1] covers variants of B1. Description: yeast surface expression (ratio to wild type); higher = more expressed. The settings on record: format: scFv 4-4-20, heavy + light.

The term Kd denotes a measure of binding affinity in units of concentration.

chain 1 EVKLDETGGGLVQPGRPMKLSCVASGFTFSDYWMNWVRQSPEKGLEWVAQIRNKPYNYETYYSDSVKGRFTISRDDSKSSVYLQMNNLRVEDMGIYYCTGLYYIMDYWGQGTSVTVS chain 2 DVVMTQTPLSLPVSLGDQASISCRSSQSLVHSNGNTYLRWYLQKPGQSPKVLIYKVSNRFSGVPDRFSGSGSGTDFTLKISRVEAEDLGVYFCSQSTHVPWTFGGGTKLEIK [chain 1 S101L G104I]: in the data set with fluorescein, the Kd is not below 10 µM. The yeast surface expression in data set [1] is 0.452.
As to chain 1 EVKLDETGGGLVQPGRPMKLSCVASGFTFSDYWMNWVRQSPEKGLEWVAQIRNKPYNYETYYSDSVKGRFTISRDDSKSSVYLQMNNLRVEDMGIYYCTGLYYSMDYWGQGTSVTVS chain 2 DVVMTQTPLSLPVSLGDQASISCRSSQSLVHSNGNTYLRWYLQKPGQSPKVLIYKVSNRFSGVPDRFSGSGSGTDFTLKISRVEAEDLGVYFCSQSTHVPWTFGGGTKLEIK [chain 1 S101L G104S], the equilibrium dissociation constant (Kd) with fluorescein was not below 10 µM. Moreover, the yeast surface expression in data set [1] came to 0.326.
For chain 1 EVKLDETGGGLVQPGRPMKLSCVASGFTFSDYWMNWVRQSPEKGLEWVAQIRNKPYNYETYYSDSVKGRFTISRDDSKSSVYLQMNNLRVEDMGIYYCTGLYYGMGYWGQGTSVTVS chain 2 DVVMTQTPLSLPVSLGDQASISCRSSQSLVHSNGNTYLRWYLQKPGQSPKVLIYKVSNRFSGVPDRFSGSGSGTDFTLKISRVEAEDLGVYFCSQSTHVPWTFGGGTKLEIK [chain 1 S101L D106G] the same measures were not below 10 µM and 0.289.
For chain 1 EVKLDETGGGLVQPGRPMKLSCVASGFTFSDYWMNWVRQSPEKGLEWVAQIRNKPYNYETYYSDSVKGRFTISRDDSKSSVYLQMNNLRVEDMGIYYCTGLYYGMKYWGQGTSVTVS chain 2 DVVMTQTPLSLPVSLGDQASISCRSSQSLVHSNGNTYLRWYLQKPGQSPKVLIYKVSNRFSGVPDRFSGSGSGTDFTLKISRVEAEDLGVYFCSQSTHVPWTFGGGTKLEIK [chain 1 S101L D106K] the same measures were not below 10 µM and 0.379.
For chain 1 EVKLDETGGGLVQPGRPMKLSCVASGFTFSDYWMNWVRQSPEKGLEWVAQIRNKPYNYETYYSDSVKGRFTISRDDSKSSVYLQMNNLRVEDMGIYYCTGLYYGMDYWGQGTSVTVS chain 2 DVVMTQTPLSLPVSLGDQASISCRSSQSLVHSNGNTYLRWYLQKPGQSPKVLIYKVSNRFSGVPDRFSGSGSGTDFTLKISRVEAEDLGVYFCSQSTHVPWTFGGGTKLEIK [chain 1 S101L] the same measures were not below 10 µM and 0.497.
As to chain 1 EVKLDETGGGLVQPGRPMKLSCVASGFTFSDYWMNWVRQSPEKGLEWVAQIRNKPYNYETYYSDSVKGRFTISRDDSKSSVYLQMNNLRVEDMGIYYCTGLYYGMDYWIQGTSVTVS chain 2 DVVMTQTPLSLPVSLGDQASISCRSSQSLVHSNGNTYLRWYLQKPGQSPKVLIYKVSNRFSGVPDRFSGSGSGTDFTLKISRVEAEDLGVYFCSQSTHVPWTFGGGTKLEIK [chain 1 S101L G109I], the Kd with fluorescein was not below 10 µM. Also, the yeast surface expression in data set [1] is 0.297.
